Source: US20060029667A1 (RUTGERS THE STATE UNIVERSITY OF NEW JERSEY, published 2006)
Non-standard residues stand in square brackets, D forms with d. No end group written: not given here. *: point of attachment. Biotin = O=C1N[C@H]2[C@H](CS[C@H]2CCCCC(=O)*)N1

Key:
[1] = molecular target: high affinity formyl methionine receptor (fMLF receptor) on differentiated HL-60 cells (human) (UniProt P21462); assay: cell-based or functional assay
[2] = molecular target: high affinity formyl methionine receptor (fMLF receptor) on differentiated HL-60 cells (human) (UniProt P21462); assay: radioligand binding to DMSO-differentiated HL-60 cells
[3] = molecular target: T1, human sodium dependent multivitamin transporter, hSMVT (human, UniProt Q9Y289 1-635); assay: cell-based or functional assay
T1 sequence (looked up): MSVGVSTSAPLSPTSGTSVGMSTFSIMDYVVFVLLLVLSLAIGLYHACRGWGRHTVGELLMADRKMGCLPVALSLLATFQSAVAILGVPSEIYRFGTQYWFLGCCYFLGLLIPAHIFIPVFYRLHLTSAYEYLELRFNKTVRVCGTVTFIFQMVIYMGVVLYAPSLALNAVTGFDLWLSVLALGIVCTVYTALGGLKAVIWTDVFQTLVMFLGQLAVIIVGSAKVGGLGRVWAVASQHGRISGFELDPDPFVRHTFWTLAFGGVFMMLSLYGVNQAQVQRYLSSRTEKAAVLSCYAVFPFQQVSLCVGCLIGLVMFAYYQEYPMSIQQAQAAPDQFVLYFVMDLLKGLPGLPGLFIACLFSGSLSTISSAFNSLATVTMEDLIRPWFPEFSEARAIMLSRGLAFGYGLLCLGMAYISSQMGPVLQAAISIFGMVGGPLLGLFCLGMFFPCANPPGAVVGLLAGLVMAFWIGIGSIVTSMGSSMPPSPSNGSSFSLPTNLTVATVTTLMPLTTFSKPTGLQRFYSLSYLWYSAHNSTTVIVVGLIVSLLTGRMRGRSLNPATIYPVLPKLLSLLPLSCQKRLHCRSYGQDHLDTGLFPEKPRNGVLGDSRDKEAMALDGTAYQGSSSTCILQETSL

Chain of high affinity formyl methionine receptor (fMLF receptor) on differentiated HL-60 cells (human) (P21462 whole entry): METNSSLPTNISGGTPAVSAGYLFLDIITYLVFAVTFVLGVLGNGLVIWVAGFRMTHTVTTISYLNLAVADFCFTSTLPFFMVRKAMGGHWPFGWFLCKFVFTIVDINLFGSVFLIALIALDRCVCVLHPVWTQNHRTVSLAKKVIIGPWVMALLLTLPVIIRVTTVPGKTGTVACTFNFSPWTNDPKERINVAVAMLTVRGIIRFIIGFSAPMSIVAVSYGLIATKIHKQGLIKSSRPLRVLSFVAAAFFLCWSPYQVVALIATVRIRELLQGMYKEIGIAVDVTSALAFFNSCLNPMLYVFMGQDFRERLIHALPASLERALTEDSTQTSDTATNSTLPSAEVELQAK

Question: With “N-formyl-methionine-leucine-phenylalanine (fMLF) peptide” as the molecule, how does the Cell Activation EC50 (calcium release from intracellular stores, differentiated HL-60 cells) [1] read?
Answer: 4.7 nM

Question: fML[3H]F (peptide) was tested. Which specific binding as percent of total binding [2] did it give?
Answer: 75%

Question: How did the “uptake in CHO/hSMVT cells relative to RI-K-Tat9 (at 10 µM)” value [3] turn out when [dK](Biotin)[dR][dR][dR][dQ][dR][dR][dK][dK][dR]-NH2 (not fully specified (N-terminus)) [RI-K(biotin)-Tat9] was run?
Answer: ~500 fold
